# In patent US20120028271A1:
# Key:
# [1] = target: proteasome of mammalian cell and human tissue extracts (detected through Rpt1, Rpn2, Rpn1 and 20S alpha subunits and chymotryptic activity) (human); assay: GST pull-down from cell extracts, co-purified chymotryptic activity standardized to UbL-A, 14 measurements
# [2] = target: proteasome of mammalian cell and human tissue extracts (detected through Rpt1, Rpn2, Rpn1 and 20S alpha subunits and chymotryptic activity) (human); assay: GST pull-down from cell extracts, co-purified chymotryptic activity, 5 measurements
# proteasome of mammalian cell and human tissue extracts (detected through Rpt1, Rpn2, Rpn1 and 20S alpha subunits and chymotryptic activity) (human), sequence (P35998 2-433, form in doubt, chain 1 of 2): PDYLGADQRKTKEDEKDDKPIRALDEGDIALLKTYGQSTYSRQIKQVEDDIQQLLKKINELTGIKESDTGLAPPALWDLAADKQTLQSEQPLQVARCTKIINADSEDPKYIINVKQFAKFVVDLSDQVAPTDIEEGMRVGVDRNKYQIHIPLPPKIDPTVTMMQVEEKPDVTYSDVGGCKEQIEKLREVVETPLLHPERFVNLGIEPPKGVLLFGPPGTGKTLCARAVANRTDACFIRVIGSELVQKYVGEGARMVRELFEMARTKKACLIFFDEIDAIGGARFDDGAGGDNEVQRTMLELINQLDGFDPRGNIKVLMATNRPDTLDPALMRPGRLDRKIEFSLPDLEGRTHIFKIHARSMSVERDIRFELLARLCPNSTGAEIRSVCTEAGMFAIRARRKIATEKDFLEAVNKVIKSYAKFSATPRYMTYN
# proteasome of mammalian cell and human tissue extracts (detected through Rpt1, Rpn2, Rpn1 and 20S alpha subunits and chymotryptic activity) (human), sequence (B8ZZH9 whole entry, form in doubt, chain 2 of 2, further chain): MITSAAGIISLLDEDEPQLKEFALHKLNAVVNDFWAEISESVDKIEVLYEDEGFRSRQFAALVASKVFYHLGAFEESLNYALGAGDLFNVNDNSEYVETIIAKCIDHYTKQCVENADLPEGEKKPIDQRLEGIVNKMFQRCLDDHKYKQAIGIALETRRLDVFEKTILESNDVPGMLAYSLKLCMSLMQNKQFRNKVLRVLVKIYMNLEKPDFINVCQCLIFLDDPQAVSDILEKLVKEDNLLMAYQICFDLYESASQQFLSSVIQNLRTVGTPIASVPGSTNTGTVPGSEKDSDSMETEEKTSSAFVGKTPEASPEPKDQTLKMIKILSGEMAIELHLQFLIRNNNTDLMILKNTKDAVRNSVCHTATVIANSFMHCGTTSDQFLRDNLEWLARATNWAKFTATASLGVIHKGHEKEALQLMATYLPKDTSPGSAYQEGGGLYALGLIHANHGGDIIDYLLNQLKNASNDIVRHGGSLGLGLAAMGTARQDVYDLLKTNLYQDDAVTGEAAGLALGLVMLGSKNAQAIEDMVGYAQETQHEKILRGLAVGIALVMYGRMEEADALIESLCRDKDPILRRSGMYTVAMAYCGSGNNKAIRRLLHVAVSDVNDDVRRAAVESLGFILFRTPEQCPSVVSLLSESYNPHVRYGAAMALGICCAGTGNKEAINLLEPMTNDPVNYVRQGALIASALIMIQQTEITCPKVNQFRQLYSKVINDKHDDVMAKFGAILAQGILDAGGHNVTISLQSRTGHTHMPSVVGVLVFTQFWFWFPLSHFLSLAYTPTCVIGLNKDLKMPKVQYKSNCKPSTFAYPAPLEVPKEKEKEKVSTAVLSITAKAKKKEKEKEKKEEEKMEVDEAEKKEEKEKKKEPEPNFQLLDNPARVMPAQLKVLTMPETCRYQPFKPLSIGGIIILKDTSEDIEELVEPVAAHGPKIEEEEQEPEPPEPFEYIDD
Molecule,fold proteasome purified (chymotryptic activity) relative to UbL-A [1] [fold],fold increase of proteasome interaction / associated chymotryptic activity relative to UbL-A^1-79 [2] [fold]
"GST-UbL-B (UbL domain of human hHR23B, residues 1-78) (from UniProt P54727 1-78)",2.94,–
"GST-UbL-A^1-78 (UbL domain of hHR23A ending in Val-Val-Val-Met-Val-Thr-Lys) (protein, not shown: a dimerising Fc or GST) MAVTITLKTLQQQTFKIRMEPDETVKVLKEKIEAEKGRDAFPVAGQKLIYAGKILSDDVPIRDYRIDEKNFVVVMVTK",–,2.5
